From patent US20160009806A1 (Seagen, published 2016) come the findings set out here.

Changes are numbered by the printed parent chain.

Test [1] has as its target T1, integrin αvβ5 on the parental line 293F:vector (human, UniProt P06756 31-1048; P18084 24-799).
T1 construct: whole, on cells; Negative control cells; also called HEK293F:vector
In words: FMAT and FACS binding on cells. For orientation: A flow cytometer gives signals particle by particle.

Test [2] concerns the target T2, recombinant αvβ3 (human, UniProt P06756 31-992; P05106 27-718).
T2 construct: Bought from R&D Systems; species read from 'recombinant human αvβ6, αvβ3 and αvβ8'
Kind of test: ELISA, integrin coated at 1 ug/ml, biotinylated antibody. The protocol: (§1) 96-well Maxisorb plates (Nunc) were coated overnight at 4° C. with 1 ug/ml of recombinant human αvβ6, αvβ3 and αvβ8 diluted in PBS. Plates were washed in PBS with 0.05% Tween 20 (PBS-T). Wash buffer was removed and plates were blocked for 30 minutes at room temperature in TBS blocking buffer (TBS plus 1 mM MnCl₂, 0.05% Tween 20, 1% BSA). Plates were washed and then incubated for 1 hour with biotinylated antibody (m15H3 or h15H3) diluted in TBS blocking buffer at concentrations that ranged from 4.6 ng/m1-10 ug/ml. Plates were washed, incubated for 1 hour with 1 ug/ml of HRP-streptavidin, washed, and then incubated with TMB substrate for 10 minutes. The reaction was stopped with 1 M H₂SO₄. Absorbance at 450 nm was read using a Fusion HT plate reader (Perkin Elmer, Waltham, Mass.).
(§2) BALB/c mice were immunized three times with intraperitoneal injections of ˜5×10⁶ 3 T3:huβ6 transfectants. Three days prior to fusion, mice received a final injection of purified recombinant human αvβ6 that was given intravenously (6 ug) and intraperitoneally (30 ug). Lymphocytes harvested from spleen and lymph nodes were fused to P3X63Ag8.653 myeloma cells using polyethylene glycol. Fused cells were recovered overnight in hybridoma growth media (IMDM containing 4 mM glutamine, 10% Fetal Clone I, 10% Cloning Factor and Penicillin/Streptomycin). […] The plates were read in an FMAT 8200 (Applied Biosystems).
Background: In an ELISA, binding on a coated surface is turned into a signal by an enzyme label.

Test [3] has as its target T3, recombinant αvβ8 (human, UniProt P06756 31-992; P26012 43-684).
T3 construct: Bought from R&D Systems; species read from 'recombinant human αvβ6, αvβ3 and αvβ8'
Described as above. Here is the method: as §1, §2

Test [4] concerns the target T4, human integrin αvβ6 on cells (human, UniProt P06756 31-1048; P18564 22-788).
T4 construct: whole, on cells; also called HEK293F:huβ6
Kind of test: saturation binding of biotinylated antibody, flow cytometry on 293F:huβ6 cells (apparent Kd). The protocol: (§3) 0.25-0.5×10⁶ antigen expressing cells were aliquoted per well into a 96-well v-bottom plate. m15H3, h15H3 (HBLC) and h15H3 (HTLC) were directly labeled with equivalent levels of biotin and added to cells at concentrations ranging from 0.1 pM-150 nM. Cells were incubated on ice for 30 minutes, washed three times in FACS buffer (PBS, 2% fetal bovine serum, 1 mM MgCl₂, 1 mM CaCl₂, 0.02% NaN₃), incubated on ice for 45 minutes with PE conjugated streptavidin (0.5 ug/ml) in FACS buffer, washed three times and resuspended in FACS buffer. Binding was detected using a Becton Dickinson Biosciences FACSCalibur (San Jose, Calif.). The apparent Kd was calculated using GraphPad Software (LaJolla, Calif.).

The target in test [5] is T5, rat integrin αvβ6 on NBT-II bladder carcinoma cells (rat, UniProt F1LZX9 31-1043; Q6AYF4 22-787).
T5 construct: whole, on cells; Endogenous αvβ6 of rat NBT-II cells; also called rat αvβ6; rat NBT-II
Kind of test: saturation binding of biotinylated antibody, flow cytometry on rat NBT-II cells (apparent Kd). Here is the method: as §3
The KD for the murine αvβ6 monoclonal antibody 15H3 antibody and select humanized version thereof was determined for human, cyno, rat, and mouse. […] The genetically engineered cell lines express endogenous αv which pairs with the recombinant β6 chain to produce a heterodimeric receptor composed of endogenous αv and recombinant β6. The affinity for rat αvβ6 was determined using rat NBT-II bladder carcinoma cells, which expression endogenous αvβ6.

In test [6] the target is T6, cynomolgus integrin αvβ6 on 293F:cynoβ6 cells (human; cynomolgus, UniProt P06756 31-1048; A0A2K5TZ36 22-787).
T6 construct: whole, on cells; also called HEK293F:cynoβ6
Kind of test: saturation binding of biotinylated antibody, flow cytometry on 293F:cynoβ6 cells (apparent Kd). The protocol:
as §3

Test [7] has as its target T7, mouse integrin αvβ6 on FDC-P1:muβ6 cells (mouse, UniProt P43406 31-1044; Q9Z0T9 22-787).
T7 construct: whole, on cells; Heterodimer of endogenous mouse αv and recombinant mouse β6
Kind of test: saturation binding of biotinylated antibody, flow cytometry on FDC-P1:muβ6 cells (apparent Kd). The protocol:
as §3

The target in test [8] is T4, human integrin αvβ6 on cells. Kind of test: competition binding, flow cytometry on 293F cells expressing αvβ6; competitor 2 nM AlexaFluor-647 m15H3. The protocol:
1×10⁵ antigen expressing cells were aliquoted in each well of a 96-well v-bottom plate on ice. […] Cells were pelleted and washed 3 times with PBS. The cells were pelleted and resuspended in 125 uL of PBS/BSA. Fluorescence was analyzed by flow cytometery, using percent of saturated fluorescent signal to determine percent labeled murine 15H3 bound and to subsequently extrapolate the EC50 by fitting the data to a sigmoidal dose-response curve with variable slope.

As a reminder, the EC50 is the concentration giving half of the maximal effect. The low end stands for an effect from little substance, the high end for a need for much substance.

T4 sequence (P06756 31-1048, chain 1 of 2): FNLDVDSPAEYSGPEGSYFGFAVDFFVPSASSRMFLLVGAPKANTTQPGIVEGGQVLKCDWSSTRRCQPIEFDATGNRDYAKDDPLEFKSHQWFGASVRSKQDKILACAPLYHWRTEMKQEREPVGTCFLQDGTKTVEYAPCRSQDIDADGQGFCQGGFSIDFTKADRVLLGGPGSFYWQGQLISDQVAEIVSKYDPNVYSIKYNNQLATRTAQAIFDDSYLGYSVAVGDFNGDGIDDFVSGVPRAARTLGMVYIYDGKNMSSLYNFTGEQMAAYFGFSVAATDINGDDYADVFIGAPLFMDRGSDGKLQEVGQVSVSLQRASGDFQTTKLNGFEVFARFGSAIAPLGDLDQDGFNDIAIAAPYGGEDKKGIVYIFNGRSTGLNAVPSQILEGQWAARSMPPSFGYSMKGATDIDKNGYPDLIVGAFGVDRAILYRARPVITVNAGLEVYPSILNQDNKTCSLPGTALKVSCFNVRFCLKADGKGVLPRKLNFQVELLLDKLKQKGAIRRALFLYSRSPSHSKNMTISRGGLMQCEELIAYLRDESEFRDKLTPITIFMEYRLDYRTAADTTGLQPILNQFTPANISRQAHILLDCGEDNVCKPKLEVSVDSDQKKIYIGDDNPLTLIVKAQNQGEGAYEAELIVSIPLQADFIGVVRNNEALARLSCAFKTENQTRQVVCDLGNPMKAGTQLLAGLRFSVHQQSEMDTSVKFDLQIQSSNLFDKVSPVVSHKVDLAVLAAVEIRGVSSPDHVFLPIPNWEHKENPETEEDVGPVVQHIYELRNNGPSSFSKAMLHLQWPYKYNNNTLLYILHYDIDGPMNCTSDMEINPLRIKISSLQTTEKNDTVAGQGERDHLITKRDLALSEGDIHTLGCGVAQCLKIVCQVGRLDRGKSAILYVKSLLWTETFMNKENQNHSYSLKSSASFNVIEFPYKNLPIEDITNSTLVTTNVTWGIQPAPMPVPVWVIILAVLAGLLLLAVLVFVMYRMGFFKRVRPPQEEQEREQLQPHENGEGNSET
T4 sequence (P18564 22-788, chain 2 of 2): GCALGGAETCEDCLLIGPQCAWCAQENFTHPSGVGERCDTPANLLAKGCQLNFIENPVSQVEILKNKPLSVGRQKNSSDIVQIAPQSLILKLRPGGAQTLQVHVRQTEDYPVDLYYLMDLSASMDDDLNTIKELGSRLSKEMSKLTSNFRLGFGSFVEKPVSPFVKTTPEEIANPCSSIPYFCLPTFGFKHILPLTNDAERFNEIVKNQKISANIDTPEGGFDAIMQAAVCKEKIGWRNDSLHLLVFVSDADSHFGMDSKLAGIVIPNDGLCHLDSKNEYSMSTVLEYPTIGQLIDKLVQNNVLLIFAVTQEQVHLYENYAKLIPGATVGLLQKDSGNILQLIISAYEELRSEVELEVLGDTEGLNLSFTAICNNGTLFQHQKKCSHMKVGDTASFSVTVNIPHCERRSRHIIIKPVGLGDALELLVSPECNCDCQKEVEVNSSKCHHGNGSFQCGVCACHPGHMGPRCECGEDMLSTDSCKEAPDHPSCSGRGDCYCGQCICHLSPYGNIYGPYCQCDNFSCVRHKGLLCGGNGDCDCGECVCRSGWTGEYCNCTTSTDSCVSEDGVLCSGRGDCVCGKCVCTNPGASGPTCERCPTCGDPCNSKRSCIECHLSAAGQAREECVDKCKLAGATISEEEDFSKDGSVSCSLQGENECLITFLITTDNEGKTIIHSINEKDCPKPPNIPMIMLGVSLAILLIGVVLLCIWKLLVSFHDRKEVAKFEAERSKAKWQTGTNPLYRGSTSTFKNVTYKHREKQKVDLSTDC
T7 sequence (P43406 31-1044, chain 1 of 2): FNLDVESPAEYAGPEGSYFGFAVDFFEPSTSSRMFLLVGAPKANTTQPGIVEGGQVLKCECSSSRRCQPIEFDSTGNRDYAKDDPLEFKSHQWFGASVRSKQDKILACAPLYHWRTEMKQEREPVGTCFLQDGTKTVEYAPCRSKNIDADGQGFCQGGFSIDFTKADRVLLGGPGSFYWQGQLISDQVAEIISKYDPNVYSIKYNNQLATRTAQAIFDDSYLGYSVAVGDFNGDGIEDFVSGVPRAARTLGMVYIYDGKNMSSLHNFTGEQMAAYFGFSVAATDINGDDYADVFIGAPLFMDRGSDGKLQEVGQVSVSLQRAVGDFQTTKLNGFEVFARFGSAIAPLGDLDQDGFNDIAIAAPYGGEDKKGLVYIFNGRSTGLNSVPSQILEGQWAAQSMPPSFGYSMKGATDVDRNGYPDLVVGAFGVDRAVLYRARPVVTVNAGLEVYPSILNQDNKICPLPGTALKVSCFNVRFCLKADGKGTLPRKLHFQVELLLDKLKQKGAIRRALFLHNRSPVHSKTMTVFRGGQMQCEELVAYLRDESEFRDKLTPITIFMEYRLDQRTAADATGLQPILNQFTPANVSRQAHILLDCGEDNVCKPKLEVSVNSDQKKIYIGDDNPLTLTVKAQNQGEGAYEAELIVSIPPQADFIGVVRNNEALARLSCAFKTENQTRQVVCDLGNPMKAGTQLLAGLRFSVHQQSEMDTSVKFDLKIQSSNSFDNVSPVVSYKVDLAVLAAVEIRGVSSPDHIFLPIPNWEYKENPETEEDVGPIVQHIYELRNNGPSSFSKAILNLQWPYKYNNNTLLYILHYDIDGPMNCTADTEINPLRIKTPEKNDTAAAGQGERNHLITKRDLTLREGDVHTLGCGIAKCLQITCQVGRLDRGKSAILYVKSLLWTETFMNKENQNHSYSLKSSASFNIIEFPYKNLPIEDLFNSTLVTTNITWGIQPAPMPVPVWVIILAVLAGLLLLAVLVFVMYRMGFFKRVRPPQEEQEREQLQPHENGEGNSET
T7 sequence (Q9Z0T9 22-787, chain 2 of 2): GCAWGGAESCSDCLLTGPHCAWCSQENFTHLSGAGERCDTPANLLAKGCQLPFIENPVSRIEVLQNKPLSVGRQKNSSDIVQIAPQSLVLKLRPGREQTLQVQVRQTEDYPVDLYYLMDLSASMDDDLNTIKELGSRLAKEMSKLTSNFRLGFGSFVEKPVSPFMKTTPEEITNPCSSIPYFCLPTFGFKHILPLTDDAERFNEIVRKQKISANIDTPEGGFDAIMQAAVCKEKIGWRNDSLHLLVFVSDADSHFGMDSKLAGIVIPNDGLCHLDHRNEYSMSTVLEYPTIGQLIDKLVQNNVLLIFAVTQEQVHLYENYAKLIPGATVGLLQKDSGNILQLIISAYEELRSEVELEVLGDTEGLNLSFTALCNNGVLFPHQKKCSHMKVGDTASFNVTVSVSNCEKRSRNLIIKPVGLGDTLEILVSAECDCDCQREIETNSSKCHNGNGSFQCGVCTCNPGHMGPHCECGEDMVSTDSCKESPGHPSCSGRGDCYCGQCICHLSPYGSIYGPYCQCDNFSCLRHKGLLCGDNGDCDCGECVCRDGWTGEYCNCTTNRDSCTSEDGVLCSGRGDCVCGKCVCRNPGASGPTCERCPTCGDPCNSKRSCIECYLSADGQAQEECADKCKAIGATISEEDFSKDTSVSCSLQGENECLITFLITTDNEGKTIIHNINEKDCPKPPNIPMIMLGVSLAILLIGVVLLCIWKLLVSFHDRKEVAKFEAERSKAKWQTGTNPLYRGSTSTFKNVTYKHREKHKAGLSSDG
T1 sequence (P06756 31-1048, chain 1 of 2): as the sequence (P06756 31-1048, chain 1 of 2) above
T1 sequence (P18084 24-799, chain 2 of 2): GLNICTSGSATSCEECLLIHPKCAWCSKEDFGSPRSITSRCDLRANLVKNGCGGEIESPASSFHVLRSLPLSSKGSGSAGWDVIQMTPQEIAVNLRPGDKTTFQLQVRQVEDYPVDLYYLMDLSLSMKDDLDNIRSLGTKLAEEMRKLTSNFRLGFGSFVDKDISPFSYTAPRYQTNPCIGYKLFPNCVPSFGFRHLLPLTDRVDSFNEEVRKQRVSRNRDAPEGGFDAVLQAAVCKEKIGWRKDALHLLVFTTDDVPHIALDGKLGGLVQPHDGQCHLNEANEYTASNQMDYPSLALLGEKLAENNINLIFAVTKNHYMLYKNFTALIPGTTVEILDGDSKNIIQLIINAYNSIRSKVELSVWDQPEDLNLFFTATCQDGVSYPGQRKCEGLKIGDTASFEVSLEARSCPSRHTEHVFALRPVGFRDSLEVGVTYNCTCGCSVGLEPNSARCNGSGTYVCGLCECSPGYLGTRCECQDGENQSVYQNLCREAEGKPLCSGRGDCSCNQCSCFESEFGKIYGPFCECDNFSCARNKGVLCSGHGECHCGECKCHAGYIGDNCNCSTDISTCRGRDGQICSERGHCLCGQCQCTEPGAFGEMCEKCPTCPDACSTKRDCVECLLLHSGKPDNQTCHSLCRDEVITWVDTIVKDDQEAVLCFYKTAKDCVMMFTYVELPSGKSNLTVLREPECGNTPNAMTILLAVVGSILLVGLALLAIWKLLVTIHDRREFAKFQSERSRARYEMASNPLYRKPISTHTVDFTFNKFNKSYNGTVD

B1: murine 15H3 monoclonal antibody (antibody, V domains shown)
VH: EVQLQQSGPELVKPGASVKISCKASGYSFSGYFMNWVKQSHGQSLEWIGLINPYNGDSFYNQKFKGKATLTVQKSSSTAHMELQSLTSEDSAVFYCVRGLRRDFDYWGQGTPLTVSS
VL: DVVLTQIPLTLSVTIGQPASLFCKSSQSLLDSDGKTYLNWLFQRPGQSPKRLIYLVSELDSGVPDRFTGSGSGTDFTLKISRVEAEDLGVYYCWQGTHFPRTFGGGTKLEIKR
notes: Murine hybridoma antibody; also called m15H3; mouse 15H3
As to B1, the binding result was “no binding” in test [1], “no binding (tested: 4.6 ng/ml-10 ug/ml)” in test [2] and “no binding (tested: 4.6 ng/ml-10 ug/ml)” in test [3]. In addition, the Kd turned out to be 0.8 nM in test [4], 0.2 nM in test [5], 1 nM in test [6] and 0.2 nM in test [7].

B2: humanized 15H3 antibody HBLC (antibody, V domains shown)
VH: QVQLVQSGAEVKKPGASVKVSCKASGYSFSGYFMNWVRQAPGQGLEWMGLINPYNGDSFYNQKFKGRVTMTRDTSTSTVYMELSSLRSEDTAVYYCARGLRRDFDYWGQGTLVTVSS
VL: DVVMTQSPLSLPVTLGQPASISCKSSQSLLDSDGKTYLNWLFQRPGQSPRRLIYLVSELDSGVPDRFSGSGSGTDFTLKISRVEAEDVGVYYCWQGTHFPRTFGGGTKLEIKR
notes: Only variable regions are tied to the construct; also called h15H3 (HBLC); h15H3-1
Regarding B2, the Kd was determined as 1.4 nM in test [4], 1.6 nM in test [6] and 0.6 nM in test [7]. Also, the response in test [8] was half-maximal at 8.14 nM (EC50).

B3: humanized 15H3 antibody HTLC (antibody, V domains shown)
VH: B2 VH with D73Q, A97V
VL: B2 VL
notes: Only variable regions are tied to the construct; also called h15H3 (HTLC); h15H3-3
Consider B3, for which the Kd was determined as 1.2 nM in test [4], 0.4 nM in test [5], 1.5 nM in test [6] and 0.3 nM in test [7]. Further, the response in test [8] was half-maximal at 3.7 nM (EC50).
